Reference: paper PMC9811540

Target: UltraID-δ opioid receptor fusion protein (UniProt P41143)
Assay: proximity labelling; test selection on live Expi293F cells expressing UltraID-DOR; 0.1 nM DTK-DNA, 0.1 nM Met-Enk-RF-DNA, 100 nM non-ligand DNA, biotin 2 μM, ATP 50 μM, 30 minutes; lysis with 1% SDS, streptavidin beads, qPCR

Row | Substance | fold enrichment over non-ligand DNA
1 | Dmt-Tic-Lys (DTK), DNA-linked (peptide) | 280 fold
2 | Met-Enk-RF, DNA-linked (peptide) | 40 fold
